Source: patent US8871909B2, “Antibodies inhibiting c-Met dimerization and uses thereof” (Pierre Fabre Medicament, priority 2007, dated 2014)
Values belong to the molecule of their own block, whether it stands above or below them.

Experiments:
c-Met-Fc = molecular target: T1, c-Met-Fc (Homo sapiens, UniProt P08581); experiment: Displacement of [125I]-HGF binding to immobilized c-Met; settings: 0.1 pM to 1 μM
T1 construct: c-Met extracellular domain fusion protein (10-15 g/dose/mouse) (R&D Systems, Catalog #358MT); purchased R&D Systems
T1 sequence (P08581 25-932 limits assumed): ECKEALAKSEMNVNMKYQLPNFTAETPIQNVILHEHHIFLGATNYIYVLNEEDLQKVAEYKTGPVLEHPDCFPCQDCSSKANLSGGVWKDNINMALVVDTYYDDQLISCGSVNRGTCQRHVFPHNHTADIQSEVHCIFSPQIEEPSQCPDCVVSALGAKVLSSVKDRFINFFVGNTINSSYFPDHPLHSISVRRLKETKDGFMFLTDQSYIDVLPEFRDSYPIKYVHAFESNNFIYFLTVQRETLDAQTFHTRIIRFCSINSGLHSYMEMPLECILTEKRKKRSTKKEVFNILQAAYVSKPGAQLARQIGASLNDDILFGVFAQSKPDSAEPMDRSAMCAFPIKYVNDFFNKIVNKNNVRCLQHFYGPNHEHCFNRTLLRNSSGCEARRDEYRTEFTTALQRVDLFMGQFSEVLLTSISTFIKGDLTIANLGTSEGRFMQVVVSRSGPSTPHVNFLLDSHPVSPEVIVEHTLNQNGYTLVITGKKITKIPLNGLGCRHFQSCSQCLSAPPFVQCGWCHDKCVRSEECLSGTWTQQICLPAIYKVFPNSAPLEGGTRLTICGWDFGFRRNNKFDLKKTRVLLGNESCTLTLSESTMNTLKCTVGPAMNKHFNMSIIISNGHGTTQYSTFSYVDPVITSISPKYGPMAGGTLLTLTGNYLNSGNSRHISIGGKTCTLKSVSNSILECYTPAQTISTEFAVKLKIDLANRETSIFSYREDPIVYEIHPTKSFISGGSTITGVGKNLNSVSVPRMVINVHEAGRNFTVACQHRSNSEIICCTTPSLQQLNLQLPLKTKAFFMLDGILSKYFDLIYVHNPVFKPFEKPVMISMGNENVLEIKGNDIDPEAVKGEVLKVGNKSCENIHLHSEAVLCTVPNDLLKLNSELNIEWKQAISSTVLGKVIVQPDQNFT
Procedure: To determine whether the anti-c-Met antibodies were able to displace HGF, binding experiments were set up. Briefly, protein A FlashPlate 96-well microplates (Perkin Elmer) were saturated with 0.5% gelatine in PBS (200 μl/well, 2 h at room temperature) before adding recombinant c-Met-Fc (R&D Systems) as a coating protein. […] of a 1 μg/ml c-Met-Fc solution in PBS were added to each well. Plates were then incubated overnight at 4° C. Free residual Protein A sites were further saturated with a non relevant hIgG (0.5 μg/well in PBS) for 2 h at room temperature. Plates were washed with PBS after each step.
For competition assays, binding of [^125I]-HGF (specific activity ˜2,000 Ci/mmol) at 200 pM to immobilized c-Met was measured in the presence of varying concentrations of the anti-c-Met monoclonal antibodies 11E1, 224G11, 223C4, 227H1 or HGF (R&D Systems) ranging from 0.1 pM to 1 μM in PBS pH 7.4. The plates were incubated at room temperature for 6 h, then counted on a Packard Top Count Microplate Scintillation Counter. Non specific binding was determined in the presence of […] of HGF. The monoclonal antibody 9G4, which is not directed at c-Met but specifically recognizes an E. coli protein, was used as mouse IgG1 isotype control.
Percent of total specific [^125I]-HGF binding was plotted as a function of ligand concentration on semilog graphs. […]

NCI-H441 [1] = experiment: In vivo combination of 224G11 and Doxorubicin on NCI-H441 xenograft model; parameters: species or system Athymic nude mice; settings: D11 to D39; Doxorubicin 5 mg/kg i.v.
Procedure: (§1) NCI-H441 cells from ATCC were routinely cultured in RPMI 1640 medium, 10% FCS, 1% L-Glutamine. Cells were split two days before engraftment being in exponential phase of growth. Ten million NCI-H441 cells were engrafted to Athymic nude mice. […] Mice were treated i.p. either with a loading dose of 2 mg of 224G11 Mab/mouse and then twice a week with 1 mg of antibody/mouse or with 4 injections of Doxorubicin (D5, D12, D19, D26) at 5 mg/kg. A third group administered with the combine treatment was also included. Doxorubicin was given by i.v. injections. Tumor volume was measured twice a week and calculated by the formula: π/6×length×width×height and animal weights were monitored every day over the period of Doxorubicin treatment. Statistical analysis was performed at each measured time using either a t-test or a Mann-Whitney test. […] Results are represented in FIG. 46.

NCI-H441 [2] = experiment: In vivo combination of 224G11 and Docetaxel on NCI-H441 xenograft model; parameters: species or system Athymic nude mice; settings: D11 to D35; Docetaxel 7.5 mg/kg i.p.
Procedure: as §1, with “growth. Nine” for “growth. Ten”, “of Docetaxel” for “of Doxorubicin”, “at 7.5” for “at 5”, “included. Docetaxel” for “included. Doxorubicin”, “by i.p.” for “by i.v.”, “FIG. 47.” for “FIG. 46.”

G55 = settings: glioblastoma growing independently of HGF; cited from earlier work

displacement of [125I]-HGF binding to immobilized c-Met (c-Met-Fc): fully displace
Molecule: HGF: hepatocyte growth factor (R&D Systems), c-Met ligand used as unlabeled competitor

Molecule: COc1cccc2c1C(=O)c1c(O)c3c(c(O)c1C2=O)C[C@@](O)(C(=O)CO)C[C@@H]3O[C@H]1C[C@H](N)[C@H](O)[C@H](C)O1 [Doxorubicin, reference compound]
anti-tumor activity compared to the control group (NCI-H441 [1]): significant anti-tumor activity

Molecule: CC(=O)O[C@@]12CO[C@@H]1C[C@H](O)[C@@]1(C)C(=O)[C@H](O)C3=C(C)[C@@H](OC(=O)[C@H](O)[C@@H](NC(=O)OC(C)(C)C)c4ccccc4)C[C@@](O)([C@@H](OC(=O)c4ccccc4)[C@H]21)C3(C)C [Docetaxel, reference compound]
anti-tumor activity compared to the control group (NCI-H441 [2]): significant anti-tumor activity

B1: OA5D5: monovalent engineered form of 5D5 produced as a recombinant protein in E. Coli (Genentech) (antibody, chains of the INN, looked up, V domains shown)
VH: EVQLVESGGGLVQPGGSLRLSCAASGYTFTSYWLHWVRQAPGKGLEWVGMIDPSNSDTRFNPNFKDRFTISADTSKNTAYLQMNSLRAEDTAVYYCATYRSYVTPLDYWGQGTLVTVSS
VL: DIQMTQSPSSLSASVGDRVTITCKSSQSLLYTSSQKNYLAWYQQKPGKAPKLLIYWASTRESGVPSRFSGSGSGTDFTLTISSLQPEDFATYYCQQYYAYPWTFGQGTKVEIK
modifications: one-armed monovalent antibody
effect on G55 tumor growth (G55): no significant effect
